Laboratory results from paper PMC12615815, “GroEL/ES chaperonin unfolds then encapsulates a nascent protein on the ribosome” (Nature Communications, 2025).

Tests used:
[1] = target: RNC_(1-510mut): stalled 70S ribosome:nascent chain complex with β-galactosidase 1-510 carrying I141N and G353D (E. coli); assay: co-sedimentation; RNC with GroEL, no GroES and no ATP/BeFx; pellet quantified by iBAQ mass spectrometry, normalised to the average of the ribosomal proteins; n = 3
[2] = target: RNC_(1-510mut): stalled 70S ribosome:nascent chain complex with β-galactosidase 1-510 carrying I141N and G353D (E. coli); assay: co-sedimentation; RNC first incubated with GroEL and GroES (20 min, 30 °C), then 1 mM ATP, 1 mM BeSO4, 10 mM NaF (10 min, 30 °C); 35% sucrose cushion; pellet by immunoblot (GroEL, GroES, S2) and iBAQ mass spectrometry
[3] = target: T1, Ribosomal stalk protein L7/L12 (E. coli, UniProt P0A7K2 1-121); assay: cross-linking; XL-MS: RNC_(1-510mut) with 5 µM GroEL and 10 µM GroES, then 1 mM ATP, 1 mM BeSO4, 10 mM NaF; 1 mM DSBU 1 h at 25 °C; conditions: both partners purified
T1 construct: ribosomal protein L7/L12, E. coli, as part of the ribosome; Cross-linked while part of the 70S ribosome or RNC; also called stalk complex; source: endogenous, in E. coli 70S ribosomes (bought: NEB) and in RNCs purified from E. coli

“GroEL (V381W, A384W, V387W) (from UniProt P0A6F5 2-525) (natural protein)” gave a stoichiometry N (GroEL subunits per ribosome) [1] of 9.8 and a stoichiometry N (GroEL subunits per ribosome) [2] of 6.7.

B1: GroES (L49W) (natural protein, E. coli, UniProt P0A6F9 1-97, looked up)
chain: MNIRPLHDRVIVKRKEVETKSAGGIVLTGSAAAKSTRGEVLAVGNGRIWENGEVKPLDVKVGDIVIFNDGYGVKSEKIDNEEVLIMSESDILAIVEA
notes: GroES, E. coli co-chaperonin subunit (10.5 kDa as printed); tryptophan mutant used for quantification; also called GroES 7-mer; source: E. coli BL21(DE3), purified (StrepTactin, 3C cleavage, Superdex 200, GSTrap); not shown: double StrepII, N-terminal, cleaved
B1: binds [3].
